Test results from paper PMC9490039 (iScience, 2022).

Target: Kv7.2 wt (wild-type Kv7.2 channel subunit), tagged with EGFP or with mKate2 (human, UniProt O43526-1 1-872)
Test: FRET or BRET

B1: Kv7.2mut-EGFP (Kv7.2 with in-frame deletion of histidine 260) (natural protein)
chain: MVQKSRNGGVYPGPSGEKKLKVGFVGLDPGAPDSTRDGALLIAGSEAPKRGSILSKPRAGGAGAGKPPKRNAFYRKLQNFLYNVLERPRGWAFIYHAYVFLLVFSCLVLSVFSTIKEYEKSSEGALYILEIVTIVVFGVEYFVRIWAAGCCCRYRGWRGRLKFARKPFCVIDIMVLIASIAVLAAGSQGNVFATSALRSLRFLQILRMIRMDRRGGTWKLLGSVVYAHSKELVTAWYIGFLCLILASFLVYLAEKGENDFDTYADALWWGLITLTTIGYGDKYPQTWNGRLLAATFTLIGVSFFALPAGILGSGFALKVQEQHRQKHFEKRRNPAAGLIQSAWRFYATNLSRTDLHSTWQYYERTVTVPMYSSQTQTYGASRLIPPLNQLELLRNLKSKSGLAFRKDPPPEPSPSKGSPCRGPLCGCCPGRSSQKVSLKDRVFSSPRGVAAKGKGSPQAQTVRRSPSADQSLEDSPSKVPKSWSFGDRSRARQAFRIKGAASRQNSEEASLPGEDIVDDKSCPCEFVTEDLTPGLKVSIRAVCVMRFLVSKRKFKESLRPYDVMDVIEQYSAGHLDMLSRIKSLQSRVDQIVGRGPAITDKDRTKGPAEAELPEDPSMMGRLGKVEKQVLSMEKKLDFLVNIYMQRMGIPPTETEAYFGAKEPEPAPPYHSPEDSREHVDRHGCIVKIVRSSSSTGQKNFSAPPAAPPVQCPPSTSWQPQSHPRQGHGTSPVGDHGSLVRIPPPPAHERSLSAYGGGNRASMEFLRQEDTPGCRPPEGNLRDSDTSISIPSVDHEELERSFSGFSISQSKENLDALNSCYAAVAPCAKVRPYIAEGESDTDSDLCTPCGPPPRSATGEGPFGDVGWAGPRK
For B1, the “increase of EGFP intensity after photobleaching mKate2 (FRET)” value was 12.1%.
